Test [1] addresses HLA-B*07:02. Nature of the test: IEDB peptide-MHC binding, purified MHC/competitive/radioactivity; filed as Kd, often an IC50 or EC50 that approximates it; ≥ and ≤ were set here for values at or beyond the usual limits of such assays.
In test [2] the target is HLA-B*51:01. The experiment in a line: IEDB peptide-MHC binding, purified MHC/competitive/radioactivity; ≥ and ≤ were set here for values at or beyond the usual limits of such assays.
Test [3] addresses HLA-B*53:01. The test is described as above.
Test [4] has as its target HLA-B*54:01. The test is described as above.
The target of test [5] is HLA-B*35:01. Described as above.
For test [6], the target named is HLA-B*07:02. Described as above.
The target in test [7] is HLA-B*35:01. Nature of the test: IEDB peptide-MHC binding, purified MHC/competitive/radioactivity; filed as Kd, often an IC50 or EC50 that approximates it; ≥ and ≤ were set here for values at or beyond the usual limits of such assays.
In test [8] the target is HLA-B*53:01. The description is as above.
Test [9] concerns the target HLA-B*54:01. Described as above.
In test [10] the target is HLA-B*51:01. The description is as above.
[11] abbreviates: source organism: Human T-cell leukemia virus type I.
The mark [12] stands for this setting: source organism: human papillomavirus 18.
Where [13] appears, read: source organism: human papillomavirus 11.
The mark [14] stands for this setting: source organism: Human T-cell lymphotrophic virus type 1 (Caribbean isolate).
Setting [15] is: source organism: Hepatitis C virus (isolate Taiwan).

Where only a bound is given, the exact number is not on record here.

In general, Kd refers to the free concentration of one partner at which half of the binding sites on the other are occupied at equilibrium, for simple one-to-one binding. The IC50 is the midpoint of a concentration-inhibition curve. In the case of LPFRNCPRF, the Kd with HLA-B*07:02 [1] (source organism: Homo sapiens) came out at 1120 nM. Besides, the half-inhibitory concentration (IC50) stood at 14 nM in the test with HLA-B*51:01 [2] (source organism: Homo sapiens), 620 nM with HLA-B*53:01 [3] (source organism: Homo sapiens), 270 nM with HLA-B*54:01 [4] (source organism: Homo sapiens) and 400 nM with HLA-B*35:01 [5] (source organism: Homo sapiens).
Consider LPQPPICTI, for which the results for the IC50 in the test with HLA-B*51:01 [2] (source organism: Homo sapiens), with HLA-B*54:01 [4] (source organism: Homo sapiens) and with HLA-B*07:02 [6] (source organism: Homo sapiens) were 4.3 nM, 20 nM and 240 nM, respectively.
With LPSIPVHPI, in the test with HLA-B*35:01 [7] (source organism: Homo sapiens), the Kd stood at 2940 nM. Besides, the IC50 with HLA-B*51:01 [2] (source organism: Homo sapiens) came out at 32 nM; with HLA-B*53:01 [3] (source organism: Homo sapiens), 465 nM; with HLA-B*54:01 [4] (source organism: Homo sapiens) it was 38 nM; with HLA-B*07:02 [6] (source organism: Homo sapiens), 68 nM.
Take LPSPACQLV: the Kd with HLA-B*53:01 [8] (source organism: Homo sapiens) was 7150 nM; with HLA-B*07:02 [1] (source organism: Homo sapiens) it was 7860 nM; in the test with HLA-B*35:01 [7] (source organism: Homo sapiens), not below 25000 nM. Also, the half-inhibitory concentration (IC50) with HLA-B*51:01 [2] (source organism: Homo sapiens) amounted to 8.2 nM; in the test with HLA-B*54:01 [4] (source organism: Homo sapiens), 217 nM.
For LPTNASLSF, the Kd with HLA-B*54:01 [9] (source organism: Homo sapiens) is not below 25000 nM. Further, the half-inhibitory concentration (IC50) with HLA-B*51:01 [2] (source organism: Homo sapiens) was determined as 809 nM; in the test with HLA-B*53:01 [3] (source organism: Homo sapiens), 34 nM; with HLA-B*35:01 [5] (source organism: Homo sapiens) it was 115 nM.
For the sequence LPTTLFQPY, the values for the Kd in the test with HLA-B*53:01 [8] (setting [11]) and in the test with HLA-B*35:01 [7] (setting [11]) were 11600 nM and 1560 nM, respectively. In addition, the concentration for half-maximal inhibition (IC50) was 42 nM with HLA-B*51:01 [2] (setting [11]), 0.83 nM with HLA-B*54:01 [4] (setting [11]) and 423 nM with HLA-B*07:02 [6] (setting [11]).
Turning to MPNQAQMRI, the Kd in the test with HLA-B*35:01 [7] (source organism: Homo sapiens) amounted to 1040 nM. In addition, the half-maximal inhibitory concentration (IC50) amounted to 14 nM with HLA-B*51:01 [2] (source organism: Homo sapiens), 20 nM with HLA-B*53:01 [3] (source organism: Homo sapiens), 424 nM with HLA-B*54:01 [4] (source organism: Homo sapiens) and 600 nM with HLA-B*07:02 [6] (source organism: Homo sapiens).
For MPREDAHFI, the 50% inhibitory concentration (IC50) is 0.46 nM in the test with HLA-B*51:01 [2] (source organism: Homo sapiens), 6.6 nM with HLA-B*53:01 [3] (source organism: Homo sapiens), 294 nM with HLA-B*54:01 [4] (source organism: Homo sapiens) and 450 nM with HLA-B*35:01 [5] (source organism: Homo sapiens).
In the case of QPFILYAHI, the equilibrium dissociation constant (Kd) with HLA-B*53:01 [8] (setting [12]) is 5470 nM; with HLA-B*54:01 [9] (setting [12]), 2940 nM; in the test with HLA-B*07:02 [1] (setting [12]), not below 25000 nM; with HLA-B*35:01 [7] (setting [12]), not below 25000 nM. Further, the half-inhibitory concentration (IC50) in the test with HLA-B*51:01 [2] (setting [12]) turned out to be 26 nM.
Regarding QPKKVKRRL, the Kd in the test with HLA-B*51:01 [10] (setting [13]) is 3240 nM; in the test with HLA-B*53:01 [8] (setting [13]), not below 25000 nM; in the test with HLA-B*54:01 [9] (setting [13]) it was not below 25000 nM; with HLA-B*07:02 [1] (setting [13]), 2900 nM; with HLA-B*35:01 [7] (setting [13]), not below 25000 nM.
As to SPATLLLVL, the equilibrium dissociation constant (Kd) with HLA-B*54:01 [9] (source organism: Homo sapiens) was found to be 12500 nM. For the same sequence, the IC50 with HLA-B*51:01 [2] (source organism: Homo sapiens) came out at 162 nM; with HLA-B*53:01 [3] (source organism: Homo sapiens), 23 nM; in the test with HLA-B*07:02 [6] (source organism: Homo sapiens), 10 nM; in the test with HLA-B*35:01 [5] (source organism: Homo sapiens), 176 nM.
In the case of SPISNVANA, the Kd was 5500 nM with HLA-B*51:01 [10] (setting [13]), not below 25000 nM in the test with HLA-B*53:01 [8] (setting [13]) and not below 25000 nM with HLA-B*35:01 [7] (setting [13]). The figures for the IC50 in the test with HLA-B*54:01 [4] (setting [13]) and with HLA-B*07:02 [6] (setting [13]) were 56 nM and 655 nM, respectively.
Take SPLGERLEV: the Kd is not below 25000 nM in the test with HLA-B*51:01 [10] (setting [12]), not below 25000 nM in the test with HLA-B*53:01 [8] (setting [12]), 9090 nM in the test with HLA-B*54:01 [9] (setting [12]) and not below 25000 nM in the test with HLA-B*35:01 [7] (setting [12]). For the same sequence, the IC50 with HLA-B*07:02 [6] (setting [12]) was found to be 42 nM.
With SPSCPLERF, the Kd with HLA-B*51:01 [10] (source organism: Homo sapiens) is 1900 nM; with HLA-B*53:01 [8] (source organism: Homo sapiens) it was 3440 nM; with HLA-B*54:01 [9] (source organism: Homo sapiens) it was not below 25000 nM. The IC50 in the test with HLA-B*07:02 [6] (source organism: Homo sapiens) stood at 833 nM; with HLA-B*35:01 [5] (source organism: Homo sapiens), 379 nM.
With TPAEVSIVV, the values for the Kd with HLA-B*53:01 [8] (source organism: Homo sapiens), with HLA-B*07:02 [1] (source organism: Homo sapiens) and with HLA-B*35:01 [7] (source organism: Homo sapiens) were 15500 nM, 1530 nM and 2120 nM, respectively. In addition, the values for the half-inhibitory concentration (IC50) with HLA-B*51:01 [2] (source organism: Homo sapiens) and in the test with HLA-B*54:01 [4] (source organism: Homo sapiens) were 39 nM and 333 nM, respectively.
Take VPLAHSSSA: the dissociation constant Kd in the test with HLA-B*53:01 [8] (source organism: Homo sapiens) and with HLA-B*35:01 [7] (source organism: Homo sapiens) was not below 25000 nM throughout. For the same sequence, the values for the concentration for half-maximal inhibition (IC50) with HLA-B*51:01 [2] (source organism: Homo sapiens), with HLA-B*54:01 [4] (source organism: Homo sapiens) and with HLA-B*07:02 [6] (source organism: Homo sapiens) were 367 nM, 23 nM and 172 nM, respectively.
Regarding WPLLPHVIF, the dissociation constant Kd in the test with HLA-B*53:01 [8] (setting [14]) was 1010 nM. In addition, the half-inhibitory concentration (IC50) with HLA-B*51:01 [2] (setting [14]) was found to be 262 nM; with HLA-B*54:01 [4] (setting [14]) it was 63 nM; with HLA-B*07:02 [6] (setting [14]), 367 nM; in the test with HLA-B*35:01 [5] (setting [14]), 180 nM.
As for YPCTVNFTI, in the test with HLA-B*07:02 [1] (setting [15]), the Kd was 10800 nM. Also, the half-maximal inhibitory concentration (IC50) with HLA-B*51:01 [2] (setting [15]) turned out to be 12 nM; with HLA-B*53:01 [3] (setting [15]), 102 nM.

Values taken from the Immune Epitope Database (IEDB).
